# Results reported in the RNAGym collection of RNA variant scans (doi:10.1021/acssynbio.7b00057).
# B1: Pistol ribozyme (parent)
# chain: GGGUCGUUGUUCCAUAAUCGCGUGGAUAUGGCACGCAAGUUUCUACCGGGCACCGUAAAUGUCCGACUGGAGCCGUUCGGGCGGCUAUAAACAGACCUCAGGCCCGAAGCGUGGCGGCACCUGCCGCCGGUGGUAAAAAAGAUCGGAAGAGCACACGUCU
# Variants of: B1
# Assay: aptazyme ON/OFF ratio, guanine; higher = stronger switching; co-transcriptional cleavage with and without guanine
row,Variant,aptazyme ON/OFF ratio
1,U7C U8G G9C U10A U11C C12G C13G,1.24
2,U7C U8G G9C U10A U11C C12G C13U,1.3
3,U7C U8G G9A U11A C12G C13U,1.08
4,U7C U8G G9A U11A C12G C13A,1.12
5,U7C U8G G9A U11A C12G C13G,1.11
6,U7C U8G G9A U10C U11C C13A,1.02
7,U7C U8G G9A U10C U11C C13U,1.02
8,U7C U8G G9A U10C U11C C13G,1.01
9,U7C U8G G9C U10A U11G C12A C13A,1.08
10,U7C U8G G9C U10A U11G C12A C13U,1.18
11,U7C U8G G9C U10A U11G C12A C13G,1.19
12,U7C U8G G9A U11C C12U C13A,1.09
13,U7C U8G G9A U11C C12U C13U,1.09
14,U7C U8G G9A U11C C12U C13G,1.15
15,U7C U8G G9C U10A U11G C12U C13G,1.12
16,U7C U8G G9C U10A U11G C12U C13U,1.18
17,U7C U8G G9C U10A U11G C12U C13A,1.16
18,U7C U8G G9A U10G U11C C12A C13U,1.25
19,U7C U8G G9A U10G U11C C12A C13G,1.1
20,U7C U8G G9A U10G U11C C12A C13A,1.35
21,U7C U8G G9A U10G U11A,1.05

row,Variant,aptazyme ON/OFF ratio
1,U7C U8G G9A U10G U11G,1.42
2,U7C U8G G9A U10G U11C,1.06
3,U7C U8G G9C U10A U11G C12U,1.31
4,U7C U8G G9C U10A U11G C12A,1.05
5,U7C U8G G9C U10A U11G C12G,1.26
6,U7C U8G G9C U10G U11G C12G C13G,1.09
7,U7C U8G G9C U10G U11G C12G C13A,1.1
8,U7C U8G G9C U10C U11C C13G,1.03
9,U7C U8G G9C U10C U11C C13A,1.03
10,U7C U8G G9C U10C U11C C13U,1.02
11,U7C U8G G9C U10G U11G C12G,1.13
12,U7C U8G G9C U10G U11G C12A,1.18
13,U7C U8G G9C U10C U11G C12G,1.09
14,U7C U8G G9C U10C U11G C12U,1.17
15,U7C U8G G9C U10C U11G C12A,1.03
16,U7C U8G G9A U10G C12U C13G,1.19
17,U7C U8G G9A U10G C12U C13A,1.46
18,U7C U8G G9A U10G C12U C13U,1.26
19,U7C U8G G9C U10G U11A C12U,1.24
20,U7C U8G G9C U10G U11A C12G,1.24
21,U7C U8G G9C U10G U11A C12A,1.34

row,Variant,aptazyme ON/OFF ratio
1,U7C U8G G9A U11A,1.18
2,U7C U8G G9A U11G,1.18
3,U7C U8G G9A U11C,1.04
4,U7C U8G G9C U10A C12A C13A,1.22
5,U7C U8G G9C U10A C12A C13G,1.1
6,U7C U8G G9C U10A C12A C13U,1.18
7,U7C U8G G9C U10C C13U,1.71
8,U7C U8G G9C U10C C13G,1.08
9,U7C U8G G9C U10C C13A,1.06
10,U7C U8G G9C U10C C12A C13A,1.06
11,U7C U8G G9C U10C C12A C13U,1.06
12,U7C U8G G9C U10C C12A C13G,1.1
13,U7C U8G G9C U10G U11C C12G C13U,1.24
14,U7C U8G G9C U10G U11C C12G C13G,1.22
15,U7C U8G G9C U10G U11C C12G C13A,1.31
16,U7C U8G G9A U10C U11C C12U C13U,1.02
17,U7C U8G G9A U10C U11C C12U C13G,1.01
18,U7C U8G G9A U10C U11C C12U C13A,1.02
19,U7C U8G G9A U11G C12U,1.26
20,U7C U8G G9A U11G C12G,1.23
21,U7C U8G G9A U11G C12A,1.09

row,Variant,aptazyme ON/OFF ratio
1,U7C U8G G9A U11A C12U C13U,1.15
2,U7C U8G G9A U11A C12U C13G,1.17
3,U7C U8G G9A U11A C12U C13A,1.19
4,U7C U8G G9A U10G U11A C12U C13U,1.32
5,U7C U8G G9A U10G U11A C12U C13G,1.36
6,U7C U8G G9A U10G U11A C12U C13A,1.46
7,U7C U8G G9C U10A U11A C12G C13G,1.18
8,U7C U8G G9C U10A U11A C12G C13U,1.17
9,U7C U8G G9C U10A U11A C12G C13A,1.12
10,U7C U8G G9A U10C U11G C12A C13G,1.13
11,U7C U8G G9A U10C U11G C12A C13A,1.12
12,U7C U8G G9A U10C U11G C12A C13U,1.14
13,U7C U8G G9C U10G C12A,1.21
14,U7C U8G G9C U10G C12U,1.4
15,U7C U8G G9C U10G C12G,1.16
16,U7C U8G G9A U11G C12A C13U,1.19
17,U7C U8G G9A U11G C12A C13A,1.17
18,U7C U8G G9A U11G C12A C13G,1.17
19,U7C U8G G9C U10C C12G,1.08
20,U7C U8G G9C U10C C12A,1.07
